Measurements: paper PMC10397247

Assays:
Experiment in all cases: two-hybrid library CCmax;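 note: natural log of median RNA to DNA barcode read ratio; higher means stronger binding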
P2-AA-1HAA-H = target: T1, P2-AA-1HAA-H; conditions: mean of both orientations
T1 chain: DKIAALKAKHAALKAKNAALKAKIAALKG

zCON9_D = target: T2, zCON9_D; conditions: mean of both orientations
T2 chain: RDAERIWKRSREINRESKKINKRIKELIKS

P11-AA = target: T3, P11-AA; conditions: mean of both orientations
T3 chain: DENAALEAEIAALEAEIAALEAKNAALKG

P2-AA-12HAA-I = target: T4, P2-AA-12HAA-I; conditions: mean of both orientations
T4 chain: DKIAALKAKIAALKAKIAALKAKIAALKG

zCON9_A = target: T5, zCON9_A
T5 chain: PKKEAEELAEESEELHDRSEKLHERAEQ

P2-AA-12HGe-T = target: T6, P2-AA-12HGe-T; conditions: mean of both orientations
T6 chain: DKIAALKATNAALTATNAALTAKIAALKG

P8-AA = target: T7, P8-AA; conditions: mean of both orientations
T7 chain: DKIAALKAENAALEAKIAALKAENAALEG

P2-AA-1HGe-W = target: T8, P2-AA-1HGe-W; conditions: mean of both orientations
T8 chain: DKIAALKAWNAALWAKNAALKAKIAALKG

P2-AA-1HGe-D = target: T9, P2-AA-1HGe-D; conditions: mean of both orientations
T9 chain: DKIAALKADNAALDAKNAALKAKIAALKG

P2-AA-12HGe-R = target: T10, P2-AA-12HGe-R; conditions: mean of both orientations
T10 chain: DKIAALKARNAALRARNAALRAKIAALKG

P2-AA-12HGe-Q = target: T11, P2-AA-12HGe-Q; conditions: mean of both orientations
T11 chain: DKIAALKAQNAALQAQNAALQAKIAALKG

P2-AA-12HGe-S = target: T12, P2-AA-12HGe-S; conditions: mean of both orientations
T12 chain: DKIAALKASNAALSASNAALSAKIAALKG

P2-AA-12HGe-H = target: T13, P2-AA-12HGe-H; conditions: mean of both orientations
T13 chain: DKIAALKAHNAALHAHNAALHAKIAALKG

P2-AA-1HGe-Q = target: T14, P2-AA-1HGe-Q; conditions: mean of both orientations
T14 chain: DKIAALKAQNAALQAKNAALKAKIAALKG

P2-AA-12HGe-A = target: T15, P2-AA-12HGe-A; conditions: mean of both orientations
T15 chain: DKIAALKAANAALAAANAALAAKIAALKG

P2-AA-12HAA-Y = target: T16, P2-AA-12HAA-Y; conditions: mean of both orientations
T16 chain: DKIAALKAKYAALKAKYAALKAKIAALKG

P2-AA-12HGe-D = target: T17, P2-AA-12HGe-D; conditions: mean of both orientations
T17 chain: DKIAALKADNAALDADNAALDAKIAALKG

P2-AA-1HGe-M = target: T18, P2-AA-1HGe-M; conditions: mean of both orientations
T18 chain: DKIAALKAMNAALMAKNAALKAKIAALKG

P4-AA = target: T19, P4-AA; conditions: mean of both orientations
T19 chain: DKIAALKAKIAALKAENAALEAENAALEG

zCON9_B = target: T20, zCON9_B; conditions: mean of both orientations
T20 chain: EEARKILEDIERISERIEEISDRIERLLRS

P2-AA-12HGe-M = target: T21, P2-AA-12HGe-M; conditions: mean of both orientations
T21 chain: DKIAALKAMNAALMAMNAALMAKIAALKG

P2-AA-1HGe-A = target: T22, P2-AA-1HGe-A; conditions: mean of both orientations
T22 chain: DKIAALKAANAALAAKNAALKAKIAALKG

P9-AA = target: T23, P9-AA; conditions: mean of both orientations
T23 chain: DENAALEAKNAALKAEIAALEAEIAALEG

P2-AA-12HAA-T = target: T24, P2-AA-12HAA-T; conditions: mean of both orientations
T24 chain: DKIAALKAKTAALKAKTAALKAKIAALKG

P7-AA = target: T25, P7-AA; conditions: mean of both orientations
T25 chain: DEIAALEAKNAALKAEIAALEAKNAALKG

P2-AA-12HAA-V = target: T26, P2-AA-12HAA-V; conditions: mean of both orientations
T26 chain: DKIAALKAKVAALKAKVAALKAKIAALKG

P1-AA = target: T27, P1-AA
T27 chain: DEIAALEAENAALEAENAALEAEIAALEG

P2-AA-12HAA-K = target: T28, P2-AA-12HAA-K; conditions: mean of both orientations
T28 chain: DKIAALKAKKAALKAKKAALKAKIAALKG

P2-AA-12HGe-W = target: T29, P2-AA-12HGe-W; conditions: mean of both orientations
T29 chain: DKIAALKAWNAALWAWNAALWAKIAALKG

P2-AA-1HAA-T = target: T30, P2-AA-1HAA-T; conditions: mean of both orientations
T30 chain: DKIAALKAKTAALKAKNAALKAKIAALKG

P2-AA-1HAA-D = target: T31, P2-AA-1HAA-D; conditions: mean of both orientations
T31 chain: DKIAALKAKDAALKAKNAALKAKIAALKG

P2-AA-1HGe-T = target: T32, P2-AA-1HGe-T; conditions: mean of both orientations
T32 chain: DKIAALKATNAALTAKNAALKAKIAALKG

P2-AA-1HAA-S = target: T33, P2-AA-1HAA-S; conditions: mean of both orientations
T33 chain: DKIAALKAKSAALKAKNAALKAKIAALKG

P2-AA-12HAA-E = target: T34, P2-AA-12HAA-E; conditions: mean of both orientations
T34 chain: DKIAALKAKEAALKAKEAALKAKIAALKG

P2-AA-12HGe-E = target: T35, P2-AA-12HGe-E; conditions: mean of both orientations
T35 chain: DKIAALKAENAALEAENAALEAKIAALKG

P2-AA-12HAA-S = target: T36, P2-AA-12HAA-S; conditions: mean of both orientations
T36 chain: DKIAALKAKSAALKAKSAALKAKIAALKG

P2-AA-12HAA-D = target: T37, P2-AA-12HAA-D; conditions: mean of both orientations
T37 chain: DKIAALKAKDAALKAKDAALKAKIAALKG

P12-AA = target: T38, P12-AA; conditions: mean of both orientations
T38 chain: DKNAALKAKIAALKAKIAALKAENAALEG

P2-AA-12HAA-R = target: T39, P2-AA-12HAA-R; conditions: mean of both orientations
T39 chain: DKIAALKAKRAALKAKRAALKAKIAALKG

P2-AA = target: T40, P2-AA; conditions: mean of both orientations
T40 chain: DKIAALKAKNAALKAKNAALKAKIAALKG

P3-AA = target: T41, P3-AA; conditions: mean of both orientations
T41 chain: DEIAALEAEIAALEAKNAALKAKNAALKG

P2-AA-1HAA-V = target: T42, P2-AA-1HAA-V; conditions: mean of both orientations
T42 chain: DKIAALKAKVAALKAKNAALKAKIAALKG

P2-AA-12HAA-L = target: T43, P2-AA-12HAA-L; conditions: mean of both orientations
T43 chain: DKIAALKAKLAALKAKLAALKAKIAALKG

P2-AA-1HAA-I = target: T44, P2-AA-1HAA-I; conditions: mean of both orientations
T44 chain: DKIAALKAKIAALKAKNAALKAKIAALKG

P2-AA-1HAA-E = target: T45, P2-AA-1HAA-E; conditions: mean of both orientations
T45 chain: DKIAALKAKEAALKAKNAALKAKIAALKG

P2-AA-1HAA-R = target: T46, P2-AA-1HAA-R; conditions: mean of both orientations
T46 chain: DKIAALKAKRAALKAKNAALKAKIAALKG

P2-AA-12HAA-H = target: T47, P2-AA-12HAA-H; conditions: mean of both orientations
T47 chain: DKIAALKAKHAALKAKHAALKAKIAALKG

P10-AA = target: T48, P10-AA; conditions: mean of both orientations
T48 chain: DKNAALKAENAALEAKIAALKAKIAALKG

- interaction score (P2-AA-1HAA-H): 2.1
- interaction score (zCON9_D): -2.59
- interaction score (P11-AA): -1.27
- interaction score (P2-AA-12HAA-I): 1.38
- interaction score (zCON9_A): -1.8
- interaction score (P2-AA-12HGe-T): 1.19
- interaction score (P8-AA): -1.57
- interaction score (P2-AA-1HGe-W): 2.42
- interaction score (P2-AA-1HGe-D): 1.9
- interaction score (P2-AA-12HGe-R): 2.37
- interaction score (P2-AA-12HGe-Q): 1.62
- interaction score (P2-AA-12HGe-S): 0.568
- interaction score (P2-AA-12HGe-H): 2.06
- interaction score (P2-AA-1HGe-Q): 1.97
- interaction score (P2-AA-12HGe-A): 1.83
- interaction score (P2-AA-12HAA-Y): 1.57
- interaction score (P2-AA-12HGe-D): -1.71
- interaction score (P2-AA-1HGe-M): 1.87
- interaction score (P4-AA): -1.71
- interaction score (zCON9_B): -1.67
- interaction score (P2-AA-12HGe-M): 1.8
- interaction score (P2-AA-1HGe-A): 2.03
- interaction score (P9-AA): -1.49
- interaction score (P2-AA-12HAA-T): 1.34
- interaction score (P7-AA): -1.7
- interaction score (P2-AA-12HAA-V): 1.26
- interaction score (P1-AA): -1.9
- interaction score (P2-AA-12HAA-K): 1.32
- interaction score (P2-AA-12HGe-W): 1.66
- interaction score (P2-AA-1HAA-T): 1.69
- interaction score (P2-AA-1HAA-D): 1.71
- interaction score (P2-AA-1HGe-T): 2.12
- interaction score (P2-AA-1HAA-S): 1.81
- interaction score (P2-AA-12HAA-E): -0.168
- interaction score (P2-AA-12HGe-E): 0.914
- interaction score (P2-AA-12HAA-S): 1.74
- interaction score (P2-AA-12HAA-D): -1.91
- interaction score (P12-AA): -0.335
- interaction score (P2-AA-12HAA-R): 1.86
- interaction score (P2-AA): 2.11
- interaction score (P3-AA): -0.804
- interaction score (P2-AA-1HAA-V): 1.86
- interaction score (P2-AA-12HAA-L): 0.342
- interaction score (P2-AA-1HAA-I): 2.01
- interaction score (P2-AA-1HAA-E): 1.78
- interaction score (P2-AA-1HAA-R): 1.51
- interaction score (P2-AA-12HAA-H): 1.67
- interaction score (P10-AA): -0.307
Binder: DEIAALEAENAALEAENAALEAEIAALEG [P1-AA]
